Reference: publication PMC7925690, “A molecular switch in sulfur metabolism to reduce arsenic and enrich selenium in rice grain” (Nature Communications, 2021)

Columns and labels:
OsASTOL1 = target: T1, OsASTOL1 (Oryza sativa, UniProt Q9XEA6); experiment: microscale thermophoresis, RED-tris-NTA labelled His-tagged protein; assay type: binding
T1 construct: gene RCS1; mature form, N-terminal 87 residues (first 261 bp) deleted; C-terminal His tag (pET-29a NdeI/XhoI); E. coli BL21(DE3); Ni-NTA; dimer by SEC

AtOAS-TL A = target: T2, AtOAS-TL A (Arabidopsis thaliana, UniProt P47998); experiment: as above; assay type: binding
T2 construct: gene OASA1; full-length ORF, C-terminal His tag (pET-29a NdeI/XhoI); E. coli BL21(DE3); Ni-NTA

[1] = target: mature OsASTOL1^S189N protein (untagged) (rice (Oryza sativa cv. Kasalath)) (UniProt Q9XEA6); experiment: SEC; HiLoad 16/60 Superdex 200 prep grade, 20 mM Tris-HCl, 150 mM NaCl, pH 7.5, 1 ml/min; 1 mg protein in 1 ml injected; molecular weight from a calibration curve
[2] = target: mature OsASTOL1 protein (untagged) (rice (Oryza sativa cv. Kasalath)) (UniProt Q9XEA6); experiment: as above
AtOAS-TL A-His = target: T3, AtOAS-TL A-His (Arabidopsis thaliana, UniProt P47998 1-322, labeled with RED-tris-NTA 2nd Generation Dye); experiment: MST; His-tagged OAS-TL labeled with RED-tris-NTA 2nd Generation Dye (100 µM as printed) with a serial dilution of the AtSAT5C10 peptide; PBS pH 7.6, 0.05% Tween 20; Monolith NT.115; settings: both partners purified
T3 construct: Arabidopsis thaliana cytosolic O-acetylserine(thiol)lyase A; ORF without the stop codon; Cloned into the NdeI/XhoI sites of pET-29a; also called His-tagged AtOAS-TL A; source: E. coli BL21 (DE3), purified (Ni-NTA); not shown: His, C-terminal, kept

AtOAS-TL A^S102N-His = target: T4, AtOAS-TL A^S102N-His (Arabidopsis thaliana, UniProt P47998 1-322, S102N, labeled with RED-tris-NTA 2nd Generation Dye); experiment: as above; settings: both partners purified
T4 construct: Arabidopsis thaliana cytosolic O-acetylserine(thiol)lyase A, site-directed mutant; ORF without the stop codon; Cloned into the NdeI/XhoI sites of pET-29a; also called His-tagged AtOAS-TL A^S102N; source: E. coli BL21 (DE3), purified (Ni-NTA); not shown: His, C-terminal, kept
T4 sequence (P47998 whole entry S102N): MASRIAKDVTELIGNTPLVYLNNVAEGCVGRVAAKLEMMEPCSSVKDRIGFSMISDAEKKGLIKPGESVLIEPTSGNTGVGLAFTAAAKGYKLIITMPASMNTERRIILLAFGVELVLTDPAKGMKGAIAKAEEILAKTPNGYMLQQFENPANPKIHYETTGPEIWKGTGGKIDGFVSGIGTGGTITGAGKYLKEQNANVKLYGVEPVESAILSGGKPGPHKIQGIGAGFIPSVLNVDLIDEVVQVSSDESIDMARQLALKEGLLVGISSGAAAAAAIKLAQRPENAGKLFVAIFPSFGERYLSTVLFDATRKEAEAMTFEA

T2 sequence (P47998 whole entry): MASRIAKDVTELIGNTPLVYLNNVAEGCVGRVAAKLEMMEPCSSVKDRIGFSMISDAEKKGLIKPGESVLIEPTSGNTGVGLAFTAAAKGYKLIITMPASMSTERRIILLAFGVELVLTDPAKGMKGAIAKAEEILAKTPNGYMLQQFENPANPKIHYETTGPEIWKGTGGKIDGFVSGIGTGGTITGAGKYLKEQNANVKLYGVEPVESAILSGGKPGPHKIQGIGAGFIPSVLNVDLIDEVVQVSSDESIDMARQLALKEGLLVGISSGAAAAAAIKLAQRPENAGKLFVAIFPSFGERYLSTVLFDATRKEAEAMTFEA
T3 sequence (P47998 whole entry): as above
T1 sequence (Q9XEA6 whole entry): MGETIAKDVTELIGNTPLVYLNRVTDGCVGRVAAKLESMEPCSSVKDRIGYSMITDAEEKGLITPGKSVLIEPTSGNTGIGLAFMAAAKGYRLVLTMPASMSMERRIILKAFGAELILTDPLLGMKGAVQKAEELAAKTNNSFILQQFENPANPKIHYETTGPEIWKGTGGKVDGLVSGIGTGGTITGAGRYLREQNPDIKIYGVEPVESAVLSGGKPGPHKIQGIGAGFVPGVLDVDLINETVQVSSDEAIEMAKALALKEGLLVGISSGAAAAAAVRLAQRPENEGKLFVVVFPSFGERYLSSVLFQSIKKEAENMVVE

Molecule: CC(=O)OC[C@H](N)C(=O)O [OAS]
- Kd (OsASTOL1): 1.47 ± 2.42 nM
- Kd (AtOAS-TL A): 13.1 ± 4.83 nM

Molecule: mature OsASTOL1^S189N protein (untagged) (from UniProt Q9XEA6 88-321) (enzyme)
- stoichiometry N [1]: 2

Molecule: mature OsASTOL1 protein (untagged) (from UniProt Q9XEA6 88-321) (enzyme)
- stoichiometry N [2]: 2

B1: AtSAT5C10 peptide (peptide)
peptide: FISEWSDYII
notes: Ten C-terminal residues of Arabidopsis thaliana serine acetyltransferase 5 (AtSAT5), AT5G56760; also called C-terminal fragment of SAT5; AtSAT5C10 fragment; source: synthetic peptide (GenScript Biotech, Nanjing)
- binding result (AtOAS-TL A-His): binds
- binding result (AtOAS-TL A^S102N-His): binds
